This note sets out measurements from the RNAGym collection of RNA variant scans (doi:10.1073/pnas.2313332121).

The chains are these.
B1: TPR 5TU (parent)
chain: GGAUCUUCUCGAUCUAACAAAAAAGACAAAUCUGCCACAAAGCUUGAGAGCAUCUUCGGAUGCAGAGGCGGCAGCCUUCGGUGGCGCGAUAGCGCCAACGUUCUCAACUAUGACACGCAAAACGCGUGCUCCGUUGAAUGGAGUUUAUCAUG

Fewer inactive variants are shown than the library holds.

In the data set the parent is B1. The data set can be described thus: polymerase ribozyme fitness, log enrichment relative to wild type (log ratio); higher = more active; in vitro selection for triplet polymerase activity. The essentials:
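Frozen incubation at −7 °C formed the core of a single, triplicate in vitro selection round applied to PCR-built, transcribed mutant libraries of each subunit of a heterodimeric triplet polymerase ribozyme. Extended constructs were gel-excised, captured with streptavidin beads and amplified by RT-PCR, and input and output libraries were Illumina-sequenced with a filter of ≥10 input reads and ≥1 read per output. Fitness is the logarithm of genotype enrichment relative to wild-type enrichment, with inverse-variance-weighted replicate averaging, and the logarithm is base 2.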
For the variant GGAUCUUCUCGAUCUAACAAAAAAGACAAAUCUGCCACAAAGCUUGAGAGCAUCUUGGUAUGCCGAGGCGGCAGCCUUCGGUGGCGCGAUAGCGCCAACGUUGUCAACUAUGACAGGCAAAACGCGUGCUCCGUUGCAUGGAGUUUAUCAUG, the “polymerase ribozyme fitness (log ratio)” value was at most -4.2.

In the case of GGAUCUUCUCGAUCUAACAAAAAAGACAAAUCUGCCACAAAGCUUGAGAGCAUCUUGGGAUGCAGAGGCGGCAGCCUUCGGUGGCGCGAUAGCGCGAACGUUCUCAACUAUGACACGCAAAACGCGUGCUCCGUUGAAUGGAGUAUAUCAUG, the “polymerase ribozyme fitness (log ratio)” value was -0.71. Regarding GGAUCUUCUCGAUCUAACAAAAAAGACAAAUCUGCCACAAAGCUUGAGAGCAUCUUGUGAUGCAGAGGCGGCAGCCUUCGGUGGCGCGAUAGCGCCAACGUUCUCAACUAUGACACGCAAAACGCGUGCUCCGUUGGAUGGAAUUUAUCAUG, the “polymerase ribozyme fitness (log ratio)” value is -2.87.

As to GGAUCUUCUCGAUCUAACAAAAAAGACAAAUCUGCCACAAAGCUUGAGAGCAUCUUGGGAUGCAGAGGCGGCAGCCUUCGGUGGCCCGAUAGCGCCAACGUUCUCAACUAUGACACGCAAAACGCGUGCUCCGUUGAAUGGAGUUUAUCAUG, the “polymerase ribozyme fitness (log ratio)” value was -3.04. Under GGAUCUUCUCGAUCUAACAAAAAAGACAAAUCUGCCACAAAGCUUGAGAGCAUCUUGGGAUGCAGAGGCGGCAGCCUUCGGUGGCACGAUAGCGCCAACGUUCUCAACUAUGACACGCAAAACGCGUGCUCCGUUGAAUGGAGUUUAUCAUG stands -1.

GGAUCUUCUCGAUCUAACAAAAAAGACAAAUCUGCCACAAAGCUUGAGAGCAUCUUGGGAUGCAGAGGCGGCAGCCUUCGGUAGCGCGAUAGCGCCAACGUUCUCAACUAUGACACGCAAAACGCGUGCUCCGUUGAAUGGAGUUUAUCAUG: the “polymerase ribozyme fitness (log ratio)” value is -1.02. GGAUCUUCUCGAUCUAACAAAAAAGACAAAUCUGCCACAAAGCUUGAGAGCAUCUUGGGAUGCAGAGGCGGCAGCCUUCGGUUGCGCGAUAGCGCCAACGUUCUCAACUAUGACACGCAAAACGCGUGCUCCGUUGAAUGGAGUUUAUCAUG: the “polymerase ribozyme fitness (log ratio)” value was -0.732. Consider GGAUCUUCUCGAUCUAACAAAAAAGACAAAUCUGCCACAAAGCUUGAGAGCAUCUUGGGAUGCAGAGGCGGCAGCCUUCGGUGGCGCGAUAUCGCCAACGUUCUCAACUAUGACACGCAAAACGCGUGCUCCGUUGAAUGGAGUUUAUCAUG, for which the “polymerase ribozyme fitness (log ratio)” value is -0.526. With GGAUCUUCUCGAUCUAACAAAAAAGACAAAUCUGCCACAAAGCUUGAGAGCAUCUUGGGAUGCAGAGGCGGCAGCCUUCGGUGUCGCGAUAGCGCCAACGUUCUCAACGAUGACACGCAAAACGCGUGCUCCGUUUAAUGGAGUUUAUCAUG, the “polymerase ribozyme fitness (log ratio)” value was -3.84. As for GGAUCUUCUCGAUCUAACAAAAAAGACAAAUCUGCCACAAAGCUUGAGAGCAUCUUGGGAUGCAAAGGCGGCAGCCUUCGGUGGCGCGAUAGCGCCAACGUUCUCAACUAUGACACGCAAAACGCGUGCUCCGCUGAAUGGAGUUUAUCAUG, the “polymerase ribozyme fitness (log ratio)” value was -1.35. In the case of GGAUCUUCUCGAUCUAACAAAAAAGACAAAUCUGCCACAAAGCUUGAGAGCAUCUUGGGAUGCAGAGGCGGCACCCUUCGGUGGCGCGAUAGCGCCAACGUUCUCAACUAUGACACGCAAAACGCGUGCUCCGUUGAAUGGAGUUUAUCAUG, the “polymerase ribozyme fitness (log ratio)” value is at most -4.2. In the case of GGAUCUUCUCGAUCUAACAAAAAAGACAAAUCUGCCACAAAGCUUGAGAGCAUCUUGGGAUGCAGAGGCGGCAGCCUUCGGUGGCACGAUAGCGUCAAUGUUCUCAACUAUGACACGCAAAACGCGUGCUCCGUUGAAUGUAGUUUAUCAUG, the “polymerase ribozyme fitness (log ratio)” value was -3.92.

For GGAUCUUCUCGAUCUAACAAAAAAGACAAAUCUGCCACAAAGCUUGAGAGCAUCUUGAGAUGCAGAGGCGGCAGCCUUCGGUGGCUCGAUAGCGCCAACGUUCUCAACUAUGACACGCAAAACGCGUGCUCCGUUGAAUGGAGUUUAUCAUG, the “polymerase ribozyme fitness (log ratio)” value is -1.7. For GGAUCUUCUCGAUCUAACAAAAAAGACAAAUCUGCCACAAAGCUUGAGAGCAUCUUGGGAUGCAGAGGCGGCAGCCUUCGGUGGCGCGAUAGCGCCAACGUUCUCAACUAUGACACGCAAAAUGCGUGCUCCGUUGAAUGGAGUAUAUCAUG, the “polymerase ribozyme fitness (log ratio)” value was -0.237. In the case of GGAUCUUCUCGAUCUAACAAAAAAGACAAAUCUGCCACAAAGCUUGAGAGCAUCUUGGGAUGCAGAGGCGGCAGCCUUCGGUGGCGCGAUAGCGCAAACGUUCUCAACUAUGACACGCAAAACGCGUGCUCCGUUGAAUGGAGUUUAUCAUG, the “polymerase ribozyme fitness (log ratio)” value is -0.472. Turning to GGAUCUUCUCGAUCUAACAAAAAAGACAAAUCUGCCACAAAGCUUGAGAGCAUCUUGAGAUGCAGAGGCGGCAGCCUUCGGUGGCGCGAUGGCGCCAACGUUCUCAACUAUGACACGCAAAACGCGUGCUCCGUUGAAUGGAGUUUAUCAUG, the “polymerase ribozyme fitness (log ratio)” value is -3.24. Turning to GGAUCUUCUCGAUCUAACAAAAAAGACAAAUCUGCCACAAAGCUUGAGAGCAUCUUGGGAUGCAGAGGCGGCAGCCUUCGGUGACGCGAUAGCGCCAACGUUUUCAACUGUGACACGCAAAACGCGUGCUCCGUUGAAUGGAGUUUAUCAUG, the “polymerase ribozyme fitness (log ratio)” value is -3.52. GGAUCUUCUCGAUCUAACAAAAAAGACAAAUCUGCCACAAAGCUUGAGAGCAUCUUGGGAUGCAGAGGCGGCAGCCUUCAGUGACGCGAUAGCGCCAACGUUCUCAACUAUGACACGCAAAACGCGUGCUCCGUUGAAUGGAGUUUAUCAUG: the “polymerase ribozyme fitness (log ratio)” value is -0.169.

For the variant GGAUCUUCUCGAUCUAACAAAAAAGACAAAUCUGCCACAAAGCUUGAGAGCAUCUUGGUAUGCAGAGGCGGCAGCCUUCGGUGGUGCGAUAGCGCCAACGUUCUCAACUAUGACACGCAAAACGCGUGCUCCGUUGAAUGGAGUUUAUCAUG, the “polymerase ribozyme fitness (log ratio)” value was -1.11.
